Assays:
[1] = molecular target: T1, wild-type intermedilysin (ILY^wt) (Streptococcus intermedius, UniProt Q9LCB8 34-532); assay: MST
T1 sequence: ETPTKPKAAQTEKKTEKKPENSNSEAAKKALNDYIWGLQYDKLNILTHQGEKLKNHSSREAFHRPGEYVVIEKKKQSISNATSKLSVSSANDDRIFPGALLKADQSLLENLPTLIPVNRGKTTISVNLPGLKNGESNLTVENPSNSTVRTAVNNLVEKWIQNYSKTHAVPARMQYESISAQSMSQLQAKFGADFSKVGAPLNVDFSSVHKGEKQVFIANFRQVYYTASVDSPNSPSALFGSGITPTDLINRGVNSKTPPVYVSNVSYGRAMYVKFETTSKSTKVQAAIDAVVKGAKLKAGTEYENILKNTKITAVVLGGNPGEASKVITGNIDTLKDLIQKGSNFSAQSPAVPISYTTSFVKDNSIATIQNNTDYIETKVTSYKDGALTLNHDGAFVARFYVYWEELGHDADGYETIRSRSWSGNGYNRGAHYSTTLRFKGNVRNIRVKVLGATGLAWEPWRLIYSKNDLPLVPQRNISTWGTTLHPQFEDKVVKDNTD

[2] = molecular target: wild-type vaginolysin (VLY^wt) (Gardnerella vaginalis, UniProt B2YGA4 31-516); assay: MST

B1: CD59 mutant D22A (CD59^D22A) (receptor, human)
chain: LQCYNCPNPTADCKTAVNCSSAFDACLITKAGLQVYNKCWKFEHCNFNDVTTRLRENELTYYCCKKDLCNFNEQLEN
modifications: Dylight 650 label (in the microscale thermophoresis only)
Kd [1]: 367 nM | Kd [2]: 779 nM

— publication PMC5320943 (Structure (London, England : 1993), 2016)
